Experimental data reported in the DeepSol protein solubility set.

experiment: soluble on expression in E. coli; label from the status in PepcDB or PDB records

Sequence | soluble on expression in E. coli
MVKDKQKAIFSENLNSYIAKSEKTQLEIAKSIGVSPQTFNTWCKGIAIPRMGKVQALADYFNINKSDLIEDKKLNIDTVPIESGYTIPVLGRVAAGYGKEAVEEVIGQIEISPSMAAKGDYFGLLIKGDSMIPTLYDGDTVIVERTDDAESGDLVIALVNGSDATCKRLQKYAEGIALIPQNPVYEPMRFTESEIDTTPVKILGKVVEMRRKFLEHHHHHH | soluble
MVKKEFHLTHTFKNVSKLEDGKTLYGPEEEHFNIPWQLSFCRKEEFVGVFLRCLRPTDGIVPWEINADCILKLTSSAGKCLSHSSTYIFQSIGGFGRRKFVSWDTLVKDHLVNDSIIMEATVMITKMTGISKKKLRSFEKSEEQFSDVVLAVEDKKFFVLRKFLASHSSYFKSLLLGTFAEADKSEIKHEAINSIDFQNFLEVLYGEPVIDDDDVEGILHLAHMYDVPVAIRKCEEFLIEKSEKSMRDQLEIAKKYQLDNLKKSCLSKVNTVEEIKAALMCDLADMDPTVVAALFRKSLALL | not soluble
MVKQLKFSEDARQAMLRGVDQLANAVKVTIGPKGRNVVLDKEFTAPLITNDGVTIAKEIELEDPYENMGAKLVQEVANKTNEIAGDGTTTATVLAQAMIQEGLKNVTSGANPVGLRQGIDKAVKVAVEALHENSQKVENKNEIAQVGAISAADEEIGRYISEAMEKVGNDGVITIEESNGLNTELEVVEGMQFDRGYQSPYMVTDSDKMVAELERPYILVTDKKISSFQDILPLLEQVVQSNRPILIVADEVEGDALTNIVLNRMRGTFTAVAVKAPGFGDRRKAMLEDLAILTGAQVITDDLGLDLKDASIDMLGTASKVEVTKDNTTVVDGDGDENSIDARVSQLKSQIEETESDFDREKLQERLAKLAGGVAVIKVGAASETELKERKLRIEDALNSTRAAVEEGIVAGGGTALVNVYQKVSEIEAEGDIETGVNIVLKALTAPVRQIAENAGLEGSVIVERLKNAEPGVGFNAATNEWVNMLEEGIVDPTKVTRSALQHAASVAAMFLTTEAVVASIPEKNNDQPNMGGMPGMM | not soluble
MVKSLQLAHQLKDKKILLIGGGEVGLTRLYKLIPTGCKLTLVSPDLHKSIIPKFGKFIQNEDQPDYREDAKRFINPNWDPTKNEIYEYIRSDFKDEYLDLEDENDAWYIIMTCIPDHPESARIYHLCKERFGKQQLVNVADKPDLCDFYFGANLEIGDRLQILISTNGLSPRFGALVRDEIRNLFTQMGDLALEDAVVKLGELRRGIRLLAPDDKDVKYRMDWARRCTDLFGIQHCHNIDVKRLLDLFKVMFQEQNCSLQFPPRERLLSEYCSS | not soluble
MVLFTRFMLMGIAMPQISRTALVPYSAEQMYQLVNDVQSYPQFLPGCVGSRVLESSPAQMTAAVDVSKAGISKTFTTRNQLTRNQSILMHLVDGPFKKLIGGWKFTPLSPEACRIEFQLDFEFTNKLIELAFGRIFKELASNMVQAFTVRAKEVYRAGLEHHHHHH | not soluble
MVLLVMKSSTTIITAYFDIGRGDWTANKGFREKLARSVDVYFSYFERLAALENEMIIFTSPDLKPRVEAIRNGKPTTVIVIDIKKKFRYIRSRIEKIQKDESFTNRLEPRQLKNPEYWSPEYVLVCNLKAYFVNKAINMGLVKTPLVAWIDFGYCRKPNVTRGLKIWDFPFDESKMHLFTIKKGLTVTSQQQVFDFMIGNHVYIIGGAIVGSQHKWKEFYKLVLESQKITLNNNIVDDDQGIFVMCYYKRPDLFNLNYLGRGKWFDLFRCFRSNTLGAKMQALRIFLSRK | not soluble
MVLYPLEAEVTMVTSFQDADPMGVIYHGNFFRYFEEARRVLMEKIQYGYRDMQDSGYMWPIIDTRVKYVKAIPFNHTIRITAQLTEWENRLRVDYVIYDAETNQRMCKAHTTQVAVSIEKQEMCFVSPAVFLDKVEQWHNHGLEHHHHHH | not soluble
MVPAESNAVQAKLAKTLQRFENKIKAGDYYEAHQTLRTIANRYVRSKSYEHAIELISQGALSFLKAKQGGSGTDLIFYLLEVYDLAEVKVDDISVARLVRLIAELDPSEPNLKDVITGMNNWSIKFSEYKFGDPYLHNTIGSKLLEGDFVYEAERYFMLGTHDSMIKYVDLLWDWLCQVDDIEDSTVAEFFSRLVFNYLFISNISFAHESKDIFLERFIEKFHPKYEKIDKNGYEIVFFEDYSDLNFLQLLLITCQTKDKSYFLNLKNHYLDFSQAYKSELEFLGQEYFNIVAPKQTNFLQDMMSGFLGGSK | soluble
MVPITHQNLIEMMTYALVLSGNRVITSGATGTNSAAIKGAMRADPNLLTVILPQSLERQPQESRQQLEQVMHLVENPSNDNLSLAEASYLCNKEIVSRCQQLICFAFHDSRTLLQTCGDAEEQRKVVTLFYFDLEHHHHHH | not soluble
MVQDQIRYDILVQDALRGVIRKVLSEVAKAGLPGSHHFFITFLTNAPGVKISTRLKSRYPEQMTIVLQHQFRDLNVSETAFEVTLSFREVSEKLVIPFHSIQVFYDPVAAFEAAFDLPSNLNSKEGENLENIASTPVILSDTQKKEKKFPKEQISKTNKDSSNNDTKQSADVVSLDSFRKK | not soluble
MVQDWEFIVSFLKINWILMNHVTAPYSYVDVSYDNIPFVGKIPIIGKDGTSSRLGVSPFYPADGNPSNPFPPIYKARPLPLHVPEPQDVVAVPLDEEALHGEPLFPPELILPSELAAEEAAKKKALETKKPENPFADVVETNEQLDTVHWPTAVSTSEIEGEDSQGKNMVQEDEPQRSVIIDEAREKPMQPFEAAKISIGANDRPKNPFRSRRILMERF | not soluble
MVQQKIANLLQGDFRYQIQYNWVSLENISPNIQLAVISSEDQRFLEHLGFDFEAIQRAIRYNEKSNKGIRGASTISQQTAKNLMLWHGQNWLRKGLEVPATMLLELTWSKKRILEVYLNIAEFGNGIFGVEAASRYYFKKSAKNLSQNEAALLAAVLPNPIIYKVNKPSLLVRKKQTWILRQMGNLGTEYLSHL | not soluble
MVQQSEVRQMKHSVSTLNQEMTQLNQETVKITQQNRLNAKSSSGVYLLPGAKTPARLESQIGTLRMSLVNITPDADGTTLTLRIQGESNDPLPAFSGTVEYGQIQGTIDNFQEINVQNQLINAPASVLAPSDVDIPLQLKGISVDQLGFVRIHDIQPVMQLEHHHHHH | soluble
MVRIEVIDIEKPEGVEVIIGQGNFSIFTVDDLARALLTAVPGIKFGIAMNEAKPQLTRYTGNDPELEALAAKNAVKIGAGHVFVILMKNAYPINVLNTIKNHPAVAMIYGASENPFQVIVAETELGRAVIGVVDGKAANKIETDEQKKERRELVEKIGYKID | soluble
MVRVVIESELVRTEKELPNSLKLRQFKDRLYHVTGVEPEDMEIVVKRQYDNKEIYSTKKGGAYSNEDEDANFLKGEEELIVVVTDSNAQSISNQLATQAEGIPSMEVISEEDYLRRDQSVLRWKMAHGYGRFNAAQQSQRAALAKQDEAYAREQLTAAIGRHCRVTVDGSAPREAILRYVGPLPLDVMGTWCGVEFPEAAGKNDGRINGVTLFGPVAPGHGSFVRPRAVEILSKDEESAEVEDVHDDVESDDEI | soluble
MVRYWIYLLSDDVASHYRHRAEKIVELLREHQYAKAPLKAICRKQVEFITERLSFSRLELGLKQYFAGRVGKNLERNMFVLQNDAGEEALLVVQKRRLLLVADSAPLASDIGRALARLSPTFLAVDADFVDYYWLSAPRQGRKFA | not soluble
MVSGGTFNAGVEKIRPGIYTNFKAAAAERTKAGERGTVALPLAASWGAAKEFVEINKEEDVEKKLGLSLAHQSFLLLRETLKLAKTVLVYRLNDGIKATATLATDVVVTAKYGGIVGNSITIKVDENVVDSSKKDVTTYLNEVAVDKQVVGTASELIDSNYVSFKTTSTSELQQSSGTTLVGGTDQPVTNLDYTQFLVSAEGEYFDTIAFPVSSSDVALKTSFVSFVKRMRDEQGVKIKGVVANMPADYEGIINVRNGVTLRDGTILEPHQVVAWVAGADASASMLKSNTFVKYDGAIDATPRLANDEAEEALQNGEFVLTFDARDKAVYVEQDLNSLTTFSKEKSSKFRKNKISRILDGINNDTRRNILDAIKERKDANTDIPADENGVQFILSMQTAYLNELQDSGAITNFDSTADITVSLNNNVDGFIVNQSIEPVDSGEKFYFTTEVKLEHHHHHH | soluble
